Changes are numbered by the printed parent chain. Names and notes keep the numbering of the source.
B1: Phenylpyruvate decarboxylase Aro10p (Aro10p^HJ) (Saccharomyces cerevisiae S288C; A377V/K527R) (protein)
chain: MAPVTIEKFVNQEERHLVSNRSATIPFGEYIFKRLLSIDTKSVFGVPGDFNLSLLEYLYSPSVESAGLRWVGTCNELNAAYAADGYSRYSNKIGCLITTYGVGELSALNGIAGSFAENVKVLHIVGVAKSIDSRSSNFSDRNLHHLVPQLHDSNFKGPNHKVYHDMVKDRVACSVAYLEDIETACDQVDNVIRDIYKYSKPGYIFVPADFADMSVTCDNLVNVPRISQQDCIVYPSENQLSDIINKITSWIYSSKTPAILGDVLTDRYGVSNFLNKLICKTGIWNFSTVMGKSVIDESNPTYMGQYNGKEGLKQVYEHFELCDLVLHFGVDINEINNGHYTFTYKPNAKIIQFHPNYIRLVDTRQGNEQMFKGINFVPILKELYKRIDVSKLSLQYDSNVTQYTNETMRLEDPTNGQSSIITQVHLQKTMPKFLNPGDVVVCETGSFQFSVRDFAFPSQLKYISQGFFLSIGMALPAALGVGIAMQDHSNAHINGGNVKEDYKPRLILFEGDGAAQMTIQELSTILRCNIPLEVIIWNNNGYTIERAIMGPTRSYNDVMSWKWTKLFEAFGDFDGKYTNSTLIQCPSKLALKLEELKNSNKRSGIELLEVKLGELDFPEQLKCMVEAAALKRNKK
B2: Phenylpyruvate decarboxylase Aro10p (Aro10p^S288C) (Saccharomyces cerevisiae S288C) (protein)
chain: B1 chain with V377A, R527K

Substrate: O=C(O)C(=O)Cc1ccccc1
Experiment: purified protein
Type: biochemical, Saccharomyces cerevisiae
Conditions: ThDP, Mg2+

Protein	Km [µM]	Vmax [µmol/min/mg]	kcat/Km [M⁻¹ s⁻¹]
B1	86.36 ± 6.18	2.11	595000 ± 33500
B2	102.24 ± 2.15	2.26	597000 ± 20500
